Laboratory results from the supplement of paper PMC10724198.
± gives the standard deviation of the averaged measurements.

Test system: Saccharomyces cerevisiae
Assay: protein stability index of tFT-peptide fusion (C-terminal peptide) (PSI (0-1 scale)); higher = more stable (slower turnover)
Conditions: genetic background: wild type; temperature: 30 C
Protocol: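 Multiplexed protein stability (MPS) profiling in S. cerevisiae. Random 12-aa peptides (tFT-X12 library) are fused to the C-terminus of a sfGFP-mCherry tandem fluorescent timer, after mCherry and a GGGS linker. Cells are FACS-sorted into 8 mCherry/sfGFP bins and deep-sequenced. The protein stability index (PSI) is the read-weighted bin average, scaled from 0 (unstable) to 1 (stable). Only peptides with >10 reads are reported; cells were grown at 30 °C in SC-His with glucose.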
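Further: PSI is a weighted mean of sequencing reads over stability bins, variants kept only with over 10 reads, mCherry proximal and sfGFP distal, peptide attached via GGGS linker.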

| Sequence | protein stability index |
| --- | --- |
| FDRWEDCKGTRD | 0.71 ± 0.013 |
| FFCLVPLALPRF | 0.649 ± 0.019 |
| FFFGPPPCRSFF | 0.731 ± 0.019 |
| FFFPSPPPPSLV | 0.749 ± 0.05 |
| FFLRSPLFPCSH | 0.72173 ± 0.00052 |
| FFMWDLLFLSLD | 0.669 ± 0.011 |
| FFPATVGPFSFP | 0.731 ± 0.015 |
| FFPQPTPVSISR | 0.8264 ± 0.0039 |
| FFPSSPFLPPPR | 0.657 ± 0.1 |
| FFSFWVGATTIE | 0.70044 ± 0.00014 |
| FFVAFGSWFGFL | 0.677 ± 0.099 |
| FFVRGCLCLSDR | 0.693 ± 0.024 |
| FFVSHLLRFAIK | 0.555 ± 0.0089 |
| FGAIREVFYIRL | 0.662 ± 0.018 |
| FGCGVADLERCL | 0.686 ± 0.013 |
| FGDLAVFFAFLL | 0.564 ± 0.0069 |
| FGESGSGSKRCG | 0.701 ± 0.12 |
| FGFLSVSPLLSV | 0.642 ± 0.016 |
| FGGEGGEEMAGG | 0.789 ± 0.034 |
| FGGGLGGGVVLV | 0.69158 ± 0.00021 |
| FGRFCYELLCGT | 0.541 ± 0.056 |
| FGSDQFVCRLWS | 0.729 ± 0.048 |
| FGVALGLRACAG | 0.668 ± 0.059 |
| FGVVGAVGWRLR | 0.638 ± 0.03 |
| FGYSGCVAKTGL | 0.658 ± 0.049 |
| FHSSDLCGPVTS | 0.67 ± 0.025 |

| Sequence | protein stability index |
| --- | --- |
| FIKSRRLCCVNL | 0.663 ± 0.032 |
| FILLLPSPPPAP | 0.618 ± 0.034 |
| FITRATRESRIG | 0.694 ± 0.0073 |
| FKKMTNVIKGNN | 0.689 ± 0.016 |
| FKLSRTDSWMFT | 0.712 ± 0.01 |
| FKPKAGCSNFAK | 0.696 ± 0.025 |
| FKSCSLHCSRCS | 0.682 ± 0.12 |
| FKWSGGGRGVGP | 0.679 ± 0.08 |
| FLFFLLLYVFFC | 0.498 ± 0.048 |
| FLGAVVGVGLVG | 0.658 ± 0.053 |
| FLGECSLLSGFL | 0.694 ± 0.033 |
| FLGGSRVGRGDG | 0.6943 ± 0.0053 |
| FLGLFHTVKKWQ | 0.684 ± 0.06 |
| FLGLSYYRLPVG | 0.606 ± 0.046 |
| FLIFSLSFCVLS | 0.6713 ± 0.0031 |
| FLLSLLAFRFFL | 0.478 ± 0.04 |
| FLLTVFPPLFFP | 0.704 ± 0.011 |
| FLLVHIFSLFCL | 0.547 ± 0.013 |
| FLLYGWTRPSCQ | 0.735 ± 0.062 |
| FLPRRLCVRWRG | 0.684 ± 0.065 |
| FLPWPSYPTPGP | 0.784 ± 0.018 |
| FLQSRGWVCNHL | 0.655 ± 0.038 |
| FLSALLALPASP | 0.698 ± 0.0064 |
| FLSARVSSSLLL | 0.639 ± 0.035 |
| FLSGVGSHLTGP | 0.653 ± 0.019 |
| FLSLAAPQSGGA | 0.693 ± 0.027 |

| Sequence | protein stability index |
| --- | --- |
| FLSRCSVRPVTY | 0.668 ± 0.021 |
| FLSSFVSNHVFW | 0.7914 ± 0.0032 |
| FLTSPFIITRMP | 0.593 ± 0.071 |
| FLVPTYISPFSF | 0.65 ± 0.027 |
| FLWLRLLEAFWF | 0.603 ± 0.032 |
| FMLCCFPCWCVL | 0.6127 ± 0.0041 |
| FMRGQCWLRGCE | 0.672 ± 0.016 |
| FNGANEDCDLGV | 0.665 ± 0.12 |
| FNNTSFALRSQA | 0.741 ± 0.029 |
| FPAMVRVDTCGV | 0.673 ± 0.059 |
| FPAPSPPFRLPP | 0.748 ± 0.025 |
| FPAYRPARLTPA | 0.606 ± 0.033 |
| FPFVVVISSSGE | 0.693 ± 0.23 |
| FPGFHPIFPPPL | 0.664 ± 0.093 |
| FPHSPPFIPHPP | 0.647 ± 0.021 |
| FPLDNIALQSFP | 0.774 ± 0.099 |
| FPLPPFPLTPPP | 0.64 ± 0.054 |
| FPLQSFCYFVPI | 0.597 ± 0.0015 |
| FPPRPLPFCSPA | 0.643 ± 0.0046 |
| FPPVPLVTDTFT | 0.675 ± 0.034 |
| FPPVVSSLPPPS | 0.686 ± 0.14 |
| FPRGPLPPAPSP | 0.6556 ± 0.006 |
| FPRPHPTPLPPG | 0.689 ± 0.013 |
| FPRSCETPARAL | 0.6607 ± 0.0043 |
| FPRSMPSPPSSE | 0.623 ± 0.035 |
| FPRSSGRTVNCV | 0.648 ± 0.0084 |

| Sequence | protein stability index |
| --- | --- |
| FPSASPPFLPTP | 0.705 ± 0.037 |
| FPSPPHALPTFP | 0.669 ± 0.071 |
| FPSSRGLGGTMG | 0.658 ± 0.017 |
| FPSTPRPPLPPP | 0.668 ± 0.014 |
| FQPTYCVHKQNK | 0.722 ± 0.024 |
| FRCFDAQRLGGV | 0.6858 ± 0.002 |
| FRDPTVLCCLHI | 0.515 ± 0.055 |
| FRMNEVSWDVVS | 0.675 ± 0.032 |
| FRRGGVERGVEG | 0.723 ± 0.026 |
| FRSFGYSGSMLA | 0.6902 ± 0.0013 |
| FRSFLSKLNGLF | 0.636 ± 0.03 |
| FRSGRLSPPAPS | 0.692 ± 0.0028 |
| FRSRGPVGMGAS | 0.686 ± 0.1 |
| FRYICYSRPVMR | 0.684 ± 0.14 |
| FSCEVSFAGLIV | 0.6 ± 0.012 |
| FSFFPLLARYFF | 0.499 ± 0.0052 |
| FSGLELRVGCGA | 0.732 ± 0.086 |
| FSGRRGCFSSYI | 0.653 ± 0.037 |
| FSLLLSFPCSYL | 0.601 ± 0.021 |
| FSLLSFLLPLFP | 0.787 ± 0.12 |
| FSNSSASPPSLS | 0.664 ± 0.068 |
| FSPDSDFTRCAP | 0.701 ± 0.002 |
| FSPPPLPAASPS | 0.664 ± 0.071 |
| FSPYLYNIRTSL | 0.612 ± 0.024 |
| FSRAFLDRVIVS | 0.713 ± 0.04 |
| FSRRQLLCLPHP | 0.677 ± 0.0083 |

| Sequence | protein stability index |
| --- | --- |
| FSRSDREIFPRN | 0.585 ± 0.07 |
| FSRSGIRLLGVA | 0.59 ± 0.021 |
| FSSARSPLLSRL | 0.705 ± 0.041 |
| FSSFCFFLPPLN | 0.666 ± 0.034 |
| FSSFVVVGCWPR | 0.625 ± 0.027 |
| FSSPLSSPSPLY | 0.6834 ± 0.0059 |
| FSSSPGRSFRTV | 0.726 ± 0.0091 |
| FSVFFSPQRGCM | 0.759 ± 0.1 |
| FTERVVEKFVLY | 0.633 ± 0.01 |
| FTPDFTPKGSLS | 0.791 ± 0.088 |
| FTPSSPPLPLLP | 0.655 ± 0.11 |
| FVASEFEVRLWR | 0.769 ± 0.01 |
| FVCLRWAVGLGG | 0.6204 ± 0.0013 |
| FVFGECRGWALV | 0.76 ± 0.046 |
| FVFSMDAFRSGL | 0.665 ± 0.045 |
| FVGDPRRLSLPI | 0.761 ± 0.14 |
| FVGPAWLGVRSC | 0.659 ± 0.012 |
| FVGVGLVRVVGW | 0.618 ± 0.018 |
| FVGWGLGVGTHD | 0.679 ± 0.0054 |
| FVKQSHYCLFHL | 0.634 ± 0.011 |
| FVLISSPLLRSF | 0.623 ± 0.017 |
| FVLPLAPAGIAS | 0.5817 ± 0.0038 |
| FVSRLWKIPTES | 0.583 ± 0.034 |
| FVVVLSPLVILQ | 0.5344 ± 0.0049 |
| FVWSGVGCWSEA | 0.701 ± 0.0076 |
| FWAWEGCTRALM | 0.681 ± 0.07 |

| Sequence | protein stability index |
| --- | --- |
| FWGCFVWFCVCG | 0.509 ± 0.023 |
| FWGPVWNVSWGV | 0.695 ± 0.019 |
| FWSRGANGGVLV | 0.6775 ± 0.0037 |
| FYPHFCAHTRPH | 0.7265 ± 0.0054 |
| FYSPSAPSPFFL | 0.797 ± 0.052 |
| GADSWFGVVDVC | 0.75 ± 0.1 |
| GAEHGVRTTAVT | 0.658 ± 0.014 |
| GAEKEPEPRRLA | 0.699 ± 0.06 |
| GAGGVWGGGQAG | 0.696 ± 0.041 |
| GAGLGGGRGRRW | 0.68617 ± 0.00065 |
| GAGRLGGDRVVG | 0.698 ± 0.037 |
| GAGVEIGKSRYR | 0.716 ± 0.074 |
| GAKCLFVSGGGI | 0.6804 ± 0.0047 |
| GALYGARCNFEL | 0.72017 ± 0.00015 |
| GAMLAGRQGWGL | 0.679 ± 0.018 |
| GAPPLAPTPPPP | 0.745 ± 0.024 |
| GAPPRPKTGRTF | 0.7118 ± 0.00075 |
| GAPRESSEGRAQ | 0.725 ± 0.095 |
| GAPVGRRPGRDR | 0.703 ± 0.035 |
| GAREHGSNDYGP | 0.635 ± 0.036 |
| GARSARVWARAK | 0.664 ± 0.022 |
| GARVRIRVNDKK | 0.677 ± 0.021 |
| GASPLPSPADHL | 0.717 ± 0.14 |
| GATGGACGVWAG | 0.668 ± 0.048 |
| GAVRGDRLTHTG | 0.734 ± 0.028 |
